Test results: the RNAGym collection of RNA variant scans (doi:10.1073/pnas.2313332121)
Fewer inactive variants are shown than the library holds.

B1: TPR 5TU (parent)
chain: GGAUCUUCUCGAUCUAACAAAAAAGACAAAUCUGCCACAAAGCUUGAGAGCAUCUUCGGAUGCAGAGGCGGCAGCCUUCGGUGGCGCGAUAGCGCCAACGUUCUCAACUAUGACACGCAAAACGCGUGCUCCGUUGAAUGGAGUUUAUCAUG

Variants of: B1
Assay: polymerase ribozyme fitness, log enrichment relative to wild type (log ratio); higher = more active; in vitro selection for triplet polymerase activity
How it was run: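 Fitness measures genotype enrichment against wild-type enrichment on a logarithmic scale, with inverse-variance-weighted averaging of replicates. The logarithm is base 2, and genotypes were kept only with ≥10 input reads and ≥1 read per output in Illumina sequencing. The sequenced libraries came from one triplicate in vitro selection round, including frozen incubation at −7 °C, of PCR-built, transcribed mutant libraries of each subunit of a heterodimeric triplet polymerase ribozyme.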

Variant | polymerase ribozyme fitness (log ratio)
GGAUCUUCUCGAUCUAACAAAAAAGACAAAUCUGCCACAACGCUUGAGAACAUCUUCGGAUGCAGAGGCGGCAGCCUUCGGUGGCGCGAUAGCGCUAACGUUCUCAACUAUGACACGCAAAACGCGUGCUCCGUUGAAUGGAGUUUAUCAUG [A41C G50A C96U] | -1.93
GGAUCUUCUCGAUCUAACAAAAAAGACAAAUCUGCCACAACGCUUGAGAACAUCUUCGGAUGCAGAGGCGGCAGCCUUCGGUGGCGCGUUAGCGCCAACGUUCUCAACUAUGUCGCGCAAAACGCGUGCUCCGUUGAAUGGAGUUAAUCAUG [A41C G50A A89U A113U A115G U146A] | -4.05
GGAUCUUCUCGAUCUAACAAAAAAGACAAAUCUGCCACAACGCUUGAGACCAUCUUCGGAUGCAGAGGCGGCAGCCUUCGGUGACGCGAUAGCGCCAACGUUCUCAACUAUGACACGCGAAACGCGUGCUCCGUUGAAUGGAGUUUAUCAUG [A41C G50C G84A A119G] | -3.83
GGAUCUUCUCGAUCUAACAAAAAAGACAAAUCUGCCACAACGCUUGAGAGCAUCUUCCCAUGCAGAGGCGGCAGCCUUCGGUGGCGCGAUAGCGCCAACGUUCUCAACUAUGCCACGCAAAACGCGUGCUCCGUUGAAUGGAGUAUAUCAUG [A41C G58C G59C A113C U145A] | -4.1
GGAUCUUCUCGAUCUAACAAAAAAGACAAAUCUGCCACAACGCUUGAGAGCAUCUUCGGAUGCAGAGGCGGCAGCCUUCGGUGGCGCGAUAGGGCCAACGUUCUUAACUAUGACACGCAAAACGCGUGCUCCGUUGAAUGGAGUUUAUCAUG [A41C C93G C105U] | -2.84
GGAUCUUCUCGAUCUAACAAAAAAGACAAAUCUGCCACAACGCUUGAGAGCAUCUUCGGAUGCAGAGGCGGCAGCCUUCUGUGGCGCGAUAGCGACAACGUUCUCAACUAUGACACGCAAAACGCGUGCUCCGUUGAAUGGAGUUUAUCAUG [A41C G80U C95A] | -1.46
GGAUCUUCUCGAUCUAACAAAAAAGACAAAUCUGCCACAACGCUUGAGAGCAUCUUCGGAUGCAGAGGCGGCAGCCUUCGGUGGCGCGAUAGUGCCAACGUUCUCAACUAUGACACGCAAAACGCGUGCUCCGUUGAAUGGAGUUUAUCAUG [A41C C93U] | -1.61
GGAUCUUCUCGAUCUAACAAAAAAGACAAAUCUGCCACAACGCUUGAGAGCAUCUUCGGAUACACAGGCGGCAGCCUUCGGUGGCGCGCUAGCGGCAACGUUCUCAACUAUGACACGCAAAACGCGUGCUCCGUUGAAUGGAGUUUAUCAAG [A41C G62A G65C A89C C95G U151A] | ≤ -4.2
GGAUCUUCUCGAUCUAACAAAAAAGACAAAUCUGCCACAACGCUUGAGAGCAUCUUCGAAUGCAGAGGAGGCAGCCUUCGGUGACGCGAUAGCGCCAACGUUCUCAUCUAUGACACGCAAAACGCGUGCUCCGUUGUAUGGAGUUUAUCAUG [A41C G59A C69A G84A A107U A137U] | ≤ -4.2
GGAUCUUCUCGAUCUAACAAAAAAGACAAAUCUGCCACAACGCUUGAGAGCAUCUUCGGAUGCAGACGCGGCAGCCUUCGGUGGAGCGAUAGCGCCAACGUUCUCAACUAUGACACGCAAAACGCGUGCUUCGUUGGAUGGAGUUUAUCAUG [A41C G67C C85A C131U A137G] | ≤ -4.2
GGAUCUUCUCGAUCUAACAAAAAAGACAAAUCUGCCACAACGCUUGAGAACAUCGACGGAUGCAUAGACGGCAGCCUUCGGUGGCGCGAUAGCGCCAACGUACUCAACUAUGACACGCAAAACGCGUGCUCCGUUGAAUUGAGUUUAUCAUG [A41C G50A U55G U56A G65U G68A U102A G140U] | ≤ -4.2
GGAUCUUCUCGAUCUAACAAAAAAGACAAAUCUGCCACAACGCUUGAGAACGUCUUCGGAUGCAGAGGCGGCAGCCUUCGGUGGCGCGAUAGCGCCAACGUUCUCAACUAUGACACGCACAACGCGUGCUCCGUUGAAUGGAGUUUAUCAUG [A41C G50A A52G A120C] | -2.96
GGAUCUUCUCGAUCUAACAAAAAAGACAAAUCUGCCACAACUCUUGAGAGCAUCUUCGGAUGCAGAGGCGGCUGCCUUCGGUUGCGCGAUAGCGCCAACGUGCUCAACUAUGACACGCAAAACCCGUGCUCCGUUGAAUGGAGUUUAUCGUG [A41C G42U A73U G83U U102G G124C A150G] | ≤ -4.2
GGAUCUUCUCGAUCUAACAAAAAAGACAAAUCUGCCACAACACUUGAGAGCAUCUUCGCAUGCAGAGACGGCAGCCUUCGGUGGCGCGAUAGCGUCAACGUUCUCAACUAUGACACGCAAAACGCGUGCUCCGUUGAAUGGAGUUUAUCAUG [A41C G42A G59C G68A C95U] | ≤ -4.2
GGAUCUUCUCGAUCUAACAAAAAAGACAAAUCUGCCACAACGCUUGAGAGCAUCUUCGGAUGCAGAGGCGGCAGCCUUCGGUGGCGCGAUAGCGCCAACGUUCUCAACUAUGACACGCAAAAUGCAUGCUCCGUGGAAUGGAGUUUAUCAUG [A41C C123U G126A U135G] | -3.4
GGAUCUUCUCGAUCUAACAAAAAAGACAAAUCUGCCACAACGCUUGAGAGCAUCUUCGGAUGCAGAGGCGGCAGCCUUCGAUGGCGCGAUAUCGCCAACGUUCUCAACUAUGACACGCAAAACGCGUGCUCCGUUUAAUGGAGUUUAUCAUG [A41C G81A G92U G136U] | -3.13
GGAUCUUCUCGAUCUAACAAAAAAGACAAAUCUGCCACAACACUUGAGGGCAUCUUCGGAUGCAGAGGCGGCAGCCUUCGGUGGCGCCAUAGCGCCAACGUUCUCAACUAUGACACGCAAAACGCGUGCUCCGUAGAAUGGAGUUUAUCAUG [A41C G42A A49G G88C U135A] | ≤ -4.2
GGAUCUUCUCGAUCUAACAAAAAAGACAAAUCUGCCACAACGCUUAAGAGCAUCUUCGGAUGCAGAGGCGGCAGCCUUCGGAGGCGCGAUAGCGCCAACGUUCUCAACUAUGACAGGCAAAACGCGUGCUCCGUUGAAUGGAGUUUAUCAUG [A41C G46A U82A C116G] | -3.58
GGAUCUUCUCGAUCUAACAAAAAAGACAAAUCUGCCACAACGCUUGAGAGCAUCUUCGGAUGCAGAAGCGGCAGCCUUCGGUGGCGCGAUAGCGCCAACGUUCUCAACUAUGACACGCAAAACGCGUGCUCCGUUGAAUGGAGUUUAUCAUG [A41C G67A] | -3.93
